± gives the standard deviation.

A short description of the series: protein stability index of a GFP-peptide fusion (GPS, HEK-293T) (PSI 1-6); higher = more stable. The settings on record: c terminus: a fixed tail appended.
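Also: 24-mer peptide tiles fused after GFP, lentivirally expressed, FACS-sorted into six equal bins by GFP/DsRed ratio, decoded by Illumina sequencing, PSI is the read-weighted mean bin number.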

With KQAEICQLEEKLEIANEDRKHALE [CCDC89], the protein stability index was 5.52 ± 0.28 (treatment: DMSO) and 5.49 ± 0.077 (treatment: MLN4924 1 uM, 8 h).
For KQYAMQRPNDDSLAFLDKIKSVKE [IQUB], in that order: 3.64 ± 0.35 and 3.87 ± 0.3.
For KRRANQKSSAQGPIPWFLPESRSL [PPEF2], in that order: 3.49 ± 0.23 and 3.57 ± 0.16.
Taken in the same sequence, the figures for KRRGPQRSVDVVVSSVFLLTLSIA [PHTF1] were 2.55 ± 0.32 and 2.33 ± 0.23.
With KSKLTYMCRVDLRGHMPEWYTKSF [DLC1], the protein stability index reads like this: (treatment: DMSO) 2.68 ± 0.65; (treatment: MLN4924 1 uM, 8 h) 2.43 ± 0.29.
For KTTGLEEAAEAETAKDNGEAEDQE [SRPK2], in that order: 5.69 ± 0.14 and 5.73 ± 0.24.
For KVEQAKKPSFQSGGRRRPPASSRN [RBMY1A1], in that order: 4.628 ± 0.025 and 4.73 ± 0.084.
For KVKKLKNLKTLDSKPGVYTSYKPY [DENND6A], in that order: 2.66 ± 0.28 and 2.81 ± 0.42.
As for KVLGHVNNILISAVLPTAFRVAKK [GDAP1], the protein stability index was 2.83 ± 0.59 (treatment: DMSO) and 2.44 ± 1.3 (treatment: MLN4924 1 uM, 8 h).
KVLQLTVRCEALTGELETLKERCA [CCDC89]: the protein stability index reads like this: (treatment: DMSO) 2.28 ± 0.21; (treatment: MLN4924 1 uM, 8 h) 2.45 ± 0.27.
Taken in the same sequence, the figures for KVTRLKSLALDIDRDAEDQNRYLD [BET1L] were 4.44 ± 0.17 and 4.6 ± 0.18.
Take KVWDQVKASNPDLKLWEIGKIIGG [SMARCE1]: the protein stability index runs as follows: (treatment: DMSO) 2.45 ± 0.32; (treatment: MLN4924 1 uM, 8 h) 2.36 ± 0.23.
Taken in the same sequence, the figures for KYKCLLQQLYYTEADYEDDSKIAF [IQUB] were 2.12 ± 0.6 and 2.02 ± 0.32.
Consider KYKKAVGLKLKQEKKEAYLKLKQG [WDR88], for which the protein stability index by setting is: (treatment: DMSO) 2.98 ± 0.87; (treatment: MLN4924 1 uM, 8 h) 3.58 ± 0.27.
Taken in the same sequence, the figures for LAATQAEKAVANFDRTEWVQIRRL [ZC2HC1C] were 3.45 ± 0.11 and 3.16 ± 0.37.
Taken in the same sequence, the figures for LAAVLVEPKLHTPMYFFLGNLSVL [OR3A1] were 3.56 ± 0.33 and 3.57 ± 0.57.
Taken in the same sequence, the figures for LADPYRSLKAPGARGPGPEGGGGG [JUNB] were 4.63 ± 0.53 and 4.71 ± 0.47.
LADSDTLSSAEENEPSQAETAVEG [C18orf25] came in with a protein stability index (treatment: DMSO) of 5.55 ± 0.33 and a protein stability index (treatment: MLN4924 1 uM, 8 h) of 5.54 ± 0.16.
With LAEIRSDLERQNQEYQVLLDVRAR [KRT33B], the protein stability index by setting is: (treatment: DMSO) 3.84 ± 0.25; (treatment: MLN4924 1 uM, 8 h) 4.02 ± 0.32.
For LAKQPGVSVNAQTLDGRTPLHLAA [RIPK4], in that order: 3.99 ± 0.76 and 4.02 ± 0.087.
For LAMLNAVTEDLRLKDWEHSIALRN [SCARA5], in that order: 2.86 ± 0.17 and 2.93 ± 0.16.
Taken in the same sequence, the figures for LANHTGYIKVDWQRVEKDMKKAKE [FUNDC2] were 4.11 ± 0.21 and 4.08 ± 0.19.
For LCKDCQVIDGRNVTVTDVDIVFSK [TPPP], the protein stability index (treatment: DMSO) came out at 2.89 ± 0.28 and the protein stability index (treatment: MLN4924 1 uM, 8 h) was found to be 3.3 ± 0.47.
LCLACSAGYYELAQVLLAMHANVE [ANKRD17]: the protein stability index runs as follows: (treatment: DMSO) 2.96 ± 0.48; (treatment: MLN4924 1 uM, 8 h) 2.56 ± 0.25.
In the case of LDEQNKRPCRKFLLTGQCDFGSNC [ZMAT5], the protein stability index worked out at 3.34 ± 0.42 (treatment: DMSO) and 3.323 ± 0.006 (treatment: MLN4924 1 uM, 8 h).
With LDLIFHVALPTEAEFQLVRDVVLC [TENT5C], the protein stability index worked out at 2.98 ± 0.27 (treatment: DMSO) and 2.68 ± 0.73 (treatment: MLN4924 1 uM, 8 h).
For LDLLSELYQKQPKIGYHLLYYLRA [INTS3], in that order: 3.21 ± 0.65 and 2.74 ± 0.53.
For LDMSQNVSLVTAELSKDAQASAAP [SLC29A1], in that order: 5.16 ± 0.12 and 5.08 ± 0.095.
For LDTVEEVLSVSKILHIPQVTKLCV [KLHL14], in that order: 2.35 ± 0.48 and 2.79 ± 0.43.
With LEAVLHCHQMGVVHRDLKPENLLL [CAMK2B], the protein stability index (treatment: DMSO) was 2.22 ± 0.3 and the protein stability index (treatment: MLN4924 1 uM, 8 h) was 2.15 ± 0.35.
For LECEINTYRSLLESEDCKLPSNPC [KRT33B], in that order: 4.07 ± 0.11 and 4.25 ± 0.23.
Turning to LEEAKKMEMAKFRYILPVYGICRE [RIPK4], the protein stability index runs as follows: (treatment: DMSO) 2.26 ± 0.23; (treatment: MLN4924 1 uM, 8 h) 2.33 ± 0.31.
Taken in the same sequence, the figures for LEEEFDSDSGLSLDSSHSPSSLSS [NFE2L1] were 5.251 ± 0.052 and 5.22 ± 0.12.
For LEEGENPVPAFQSDGTDEPESKEP [SMG5], in that order: 5.65 ± 0.24 and 5.65 ± 0.2.
Taken in the same sequence, the figures for LEEKCQQPASELLQDVRVNQSRCE [TRIM15] were 5.58 ± 0.22 and 5.53 ± 0.5.
Consider LEGVIDRYQQSKAAALKCQLCEKA [TRIM9], for which the protein stability index reads like this: (treatment: DMSO) 3.45 ± 0.32; (treatment: MLN4924 1 uM, 8 h) 3.78 ± 0.34.
For LEGVVSQIDAVGSKLKMLERKGWL [PKD2L1], in that order: 2.63 ± 0.37 and 2.77 ± 0.24.
For LELLGASFANDRENYDIIKTYHYL [FEM1B], in that order: 2.32 ± 0.43 and 2.17 ± 0.36.
Taken in the same sequence, the figures for LEQASSHIGNSTQATVRDAVVGRP [ATL3] were 5.03 ± 0.26 and 5.03 ± 0.35.
Turning to LEQKTQESQKKKQQDDSDEYDDDD [ZNF207], the protein stability index was 5.62 ± 0.12 (treatment: DMSO) and 5.61 ± 0.34 (treatment: MLN4924 1 uM, 8 h).
As to LFEGMIWFLVPISSVICNDITAYL [CDS1], the protein stability index (treatment: DMSO) amounted to 3.91 ± 0.42 and the protein stability index (treatment: MLN4924 1 uM, 8 h) was 3.38 ± 0.86.
Taken in the same sequence, the figures for LFSLNVISLTCVSVAFAVAWFLPM [SLC19A2] were 3.12 ± 0.48 and 2.8 ± 0.23.
For LGERRAEPHSLLHLSRLCVRHNLG [SPSB2], in that order: 3.35 ± 0.22 and 3.3 ± 0.23.
For the sequence LGLPYYETSVFDQFGIKDVFDNAI [RHOBTB1], the protein stability index runs as follows: (treatment: DMSO) 2.34 ± 0.28; (treatment: MLN4924 1 uM, 8 h) 2.45 ± 0.42.
Taken in the same sequence, the figures for LGLTNQSRRYNRKEPAEFNGDGAF [ZNF649] were 3.96 ± 0.29 and 4.26 ± 0.37.
Taken in the same sequence, the figures for LGPAFRGLKGRTLYPAVSAVWGQC [SPSB2] were 2.17 ± 0.22 and 2.16 ± 0.18.
For LGSFESPANSETSDLTLYLVVAVA [PCDHGA10], the protein stability index by setting is: (treatment: DMSO) 2.66 ± 0.87; (treatment: MLN4924 1 uM, 8 h) 2.67 ± 0.48.
For LGVCASGLLIYRDRLRINRFAWPK [EPB41L3], in that order: 2.06 ± 0.046 and 2.4 ± 0.26.
For the sequence LHNLLLHQEGAKMAVRLAGGLQKM [CTNNB1], the protein stability index runs as follows: (treatment: DMSO) 2.02 ± 0.22; (treatment: MLN4924 1 uM, 8 h) 2.36 ± 0.26.
For LHVAAHYGRDSFVRLLLEFKAEVD [ASB7], in that order: 2.15 ± 0.14 and 2.15 ± 0.37.
Taken in the same sequence, the figures for LIFSVQPKSLVRLSLEAVICFKEM [KLHDC2] were 1.88 ± 0.17 and 2.04 ± 0.31.
On to LIGRPGNKTQQVIHIIDFGLAKEY [CSNK1G3], for which the protein stability index by setting is: (treatment: DMSO) 2.38 ± 0.69; (treatment: MLN4924 1 uM, 8 h) 2.4 ± 0.43.
For LKCDLQERLLCPSLLAGTADGSLR [M1AP], in that order: 2.55 ± 0.32 and 2.5 ± 0.24.
As for LKDLLLQVGRGLRYIHSMSLVHMD [WEE1], the protein stability index reads like this: (treatment: DMSO) 2.64 ± 0.74; (treatment: MLN4924 1 uM, 8 h) 2.85 ± 0.69.
In the case of LKPTLTIIKTEKVDLELFPSPDME [ETS1], the protein stability index amounted to 3.4 ± 0.18 (treatment: DMSO) and 3.21 ± 0.32 (treatment: MLN4924 1 uM, 8 h).
Taken in the same sequence, the figures for LKQNFSKSWHDMQTTTAYKKTHET [TPD52L1] were 3.6 ± 0.25 and 3.96 ± 0.24.
Taken in the same sequence, the figures for LKSQPLPLRSSLPISLQATPATPA [TFE3] were 3.92 ± 0.14 and 4 ± 0.26.
For LKVAAESCKADVVELLLSHADCDR [FEM1B], in that order: 3.16 ± 0.19 and 3.13 ± 0.36.
The sequence LKYQAPDIDVQLSSELTDSLRTLK [NOP53] returned a protein stability index (treatment: DMSO) of 2.79 ± 0.14 and a protein stability index (treatment: MLN4924 1 uM, 8 h) of 3.14 ± 0.45.
For LLAQARDEAQGACLQQKQVVAEAQ [LRRC45], in that order: 4.847 ± 0.003 and 4.9 ± 0.087.
Taken in the same sequence, the figures for LLDDSKTWWRVRNAANRTGYVPSN [NCK2] were 2.93 ± 0.23 and 2.79 ± 0.15.
Taken in the same sequence, the figures for LLGTSGLKRRFSRLENRYEALAKQ [DAPK3] were 3.04 ± 0.31 and 3.06 ± 0.27.
Turning to LLHSQARLAELEAQVRKLELERAQ [FBF1], the protein stability index by setting is: (treatment: DMSO) 3.68 ± 0.15; (treatment: MLN4924 1 uM, 8 h) 3.5 ± 0.58.
Taken in the same sequence, the figures for LLKQGYNKTLLRLRLRKERVSDVQ [PKD2L1] were 2.35 ± 0.28 and 2.44 ± 0.27.
For LLLNNANPNLSNRRGSTPLHMAVE [RIPK4], in that order: 2.41 ± 0.25 and 2.73 ± 0.43.
For LLVSLVTTVVVFVASMVLGECRQM [CLCN6], in that order: 3.02 ± 0.73 and 3 ± 0.94.
Take LMELCRLYHRADVEKVLRRWVDEE [EDARADD]: the protein stability index (treatment: DMSO) was found to be 2.5 ± 0.58 and the protein stability index (treatment: MLN4924 1 uM, 8 h) stood at 2.4 ± 0.33.
On to LNEEINIASSDSEVEIVGVQEHAR [C18orf25], for which the protein stability index came out at 5.27 ± 0.1 (treatment: DMSO) and 5.33 ± 0.18 (treatment: MLN4924 1 uM, 8 h).
For LPGRGRVLSSWSRAFVSIQEEMAE [RHOBTB2], in that order: 3.08 ± 0.54 and 3.25 ± 0.27.
For LPHLQDSFVDKLLDLMPRLMTSKP [INTS4], in that order: 2.16 ± 0.2 and 2.15 ± 0.24.
For LPPDMTVVPGDHLLEPEVADGGGA [KCNA3], in that order: 5.35 ± 0.39 and 5.42 ± 0.096.
As for LPPSPRFLVMKGQEGAASKVLGRL [SLC2A12], the protein stability index is 3.34 ± 0.28 (treatment: DMSO) and 3.48 ± 0.83 (treatment: MLN4924 1 uM, 8 h).

The values above are taken from the supplement of paper PMC10567573.
